Reference: patent US20190085093

Assays:
[1] = target: FCHo1-C-3×DDK mutation Δ531-589, O14526
[2] = target: FCHo1-C-3×DDK mutation Δ563-564, O14526
Chain of FCHo1-C-3×DDK mutation Δ563-564, O14526 (O14526 whole entry, looked up, stated change not applied, tested part not stated): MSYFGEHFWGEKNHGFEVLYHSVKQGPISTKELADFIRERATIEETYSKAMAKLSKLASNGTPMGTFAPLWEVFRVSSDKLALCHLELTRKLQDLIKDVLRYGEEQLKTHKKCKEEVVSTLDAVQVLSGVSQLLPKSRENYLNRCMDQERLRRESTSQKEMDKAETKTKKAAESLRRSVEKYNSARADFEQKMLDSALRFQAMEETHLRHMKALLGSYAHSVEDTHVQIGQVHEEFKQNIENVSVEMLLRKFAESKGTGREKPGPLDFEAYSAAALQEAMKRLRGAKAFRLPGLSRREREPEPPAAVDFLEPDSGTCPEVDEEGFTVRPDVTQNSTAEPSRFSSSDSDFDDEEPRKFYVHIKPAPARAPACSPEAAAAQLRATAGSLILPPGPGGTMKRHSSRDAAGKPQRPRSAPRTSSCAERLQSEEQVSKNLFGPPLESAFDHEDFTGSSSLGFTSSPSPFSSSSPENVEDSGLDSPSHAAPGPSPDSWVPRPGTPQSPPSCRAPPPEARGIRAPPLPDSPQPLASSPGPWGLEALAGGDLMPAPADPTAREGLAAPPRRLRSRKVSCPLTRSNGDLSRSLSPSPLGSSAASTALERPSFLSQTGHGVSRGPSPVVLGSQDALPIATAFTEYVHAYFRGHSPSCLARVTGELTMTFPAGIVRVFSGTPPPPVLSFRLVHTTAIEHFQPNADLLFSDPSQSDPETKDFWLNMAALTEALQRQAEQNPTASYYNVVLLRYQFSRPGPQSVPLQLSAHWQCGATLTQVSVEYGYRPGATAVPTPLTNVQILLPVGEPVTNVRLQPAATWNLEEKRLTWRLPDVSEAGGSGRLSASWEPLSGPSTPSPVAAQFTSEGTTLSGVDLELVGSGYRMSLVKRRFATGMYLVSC

Chain of FCHo1-C-3×DDK mutation Δ531-589, O14526 (O14526 whole entry, looked up, stated change not applied, tested part not stated): as above

B1: matrix metallopeptidase 9 (MMP-9) (protein)
chain: APRQRQSTLVLFPGDLRTNLTDRQLAEEYLYRYGYTRVAEMRGESKSLGPALLLLQKQLSLPETGELDSATLKAMRTPRCGVPDLGRFQTFEGDLKWHHHNITYWIQNYSEDLPRAVIDDAFARAFALWSAVTPLTFTRVYSRDADIVIQFGVAEHGDGYPFDGKDGLLAHAFPPGPGIQGDAHFDDDELWSLGKGVVVPTRFGNADGAACHFPFIFEGRSYSACTTDGRSDGLPWCSTTANYDTDDRFGFCPSERLYTQDGNADGKPCQFPFIFQGQSYSACTTDGRSDGYRWCATTANYDRDKLFGFCPTRADSTVMGGNSAGELCVFPFTFLGKEYSTCTSEGRGDGRLWCATTSNFDSDKKWGFCPDQGYSLFLVAAHEFGHALGLDHSSVPEALMYPMYRFTEGPPLHKDDVNGIRHLYGPRPEPEPRPPTTTTPQPTAPPTVCPTGPPTVHPSERPTAGPTGPPSAGPTGPPTAGPSTATTVPLSPVDDACNVNIFDAIAEIGNQLYLFKDGKYWRFSEGRGSRPQGPFLIADKWPALPRKLDSVFEERLSKKLFFFSGRQVWVYTGASVLGPRRLDKLGLGADVAQVTGALRSGRGKMLLFSGRRLWRFDVKAQMVDPRSASEVDRMFPGVPLDTHDVFQYREKAYFCQDRFYWRVSSRSELNQVDQVGYVTYDILQCPED
In the case of B1, the “zymography of MMP-9 after FLAG immunoprecipitation” value [1] is reported as “the activity of MMP-9 is suppressed in FCHo1 deletion mutations A563-564 and A531-589 compared with the wild-type” and the “zymography of MMP-9 after FLAG immunoprecipitation” value [2] is reported as “the activity of MMP-9 is suppressed in FCHo1 deletion mutations A563-564 and A531-589 compared with the wild-type”.
